Experimental findings from publication PMC10868436, “Discovery of broadly‐neutralizing antibodies against brown recluse spider and Gadim scorpion sphingomyelinases using consensus toxins as antigens” (Protein Science : A Publication of the Protein Society, 2024) are described below.

The target of assay [1] is T1, recombinant SMase from H. lepturus (Hemiscorpius lepturus, UniProt A0A1L4BJ98).
T1 construct: also called rHl; recombinant sphingomyelinase from Hemiscorpius lepturus; source: E. coli BL21(DE3), purified (HisPur Ni-NTA)
T1 sequence (A0A1L4BJ98 whole entry, looked up): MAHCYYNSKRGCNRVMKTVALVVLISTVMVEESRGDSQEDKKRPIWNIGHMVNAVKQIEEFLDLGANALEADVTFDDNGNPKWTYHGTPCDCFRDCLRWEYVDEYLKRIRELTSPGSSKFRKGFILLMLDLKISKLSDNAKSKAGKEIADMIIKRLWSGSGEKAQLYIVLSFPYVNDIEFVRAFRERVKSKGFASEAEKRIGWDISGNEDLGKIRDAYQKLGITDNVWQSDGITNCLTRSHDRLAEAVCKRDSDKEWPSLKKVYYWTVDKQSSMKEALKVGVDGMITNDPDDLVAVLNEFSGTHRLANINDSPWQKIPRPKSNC
In words: BLI; ForteBio Octet RED96, […]; 1:1 binding model, […]; triplicate. The note with it: both partners purified.

The target of assay [2] is T2, recombinant SMase from L. rufescens (Loxosceles rufescens, UniProt C0JB02).
T2 construct: also called rLr; recombinant sphingomyelinase from Loxosceles rufescens; source: E. coli BL21(DE3), purified (HisPur Ni-NTA)
T2 sequence (C0JB02 whole entry, looked up): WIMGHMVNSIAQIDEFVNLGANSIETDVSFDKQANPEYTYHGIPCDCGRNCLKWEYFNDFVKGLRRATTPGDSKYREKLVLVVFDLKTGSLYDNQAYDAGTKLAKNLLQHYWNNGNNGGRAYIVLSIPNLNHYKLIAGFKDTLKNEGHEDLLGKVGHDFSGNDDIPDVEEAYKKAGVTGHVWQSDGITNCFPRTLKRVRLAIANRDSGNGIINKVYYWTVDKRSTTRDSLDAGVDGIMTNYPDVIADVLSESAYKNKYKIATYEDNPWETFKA
The assay is described as above. The note with it: both partners purified.

B1: TPL0674_03_F05 (scFv, V domains shown)
VH: EVQLVQSGAEVKKPGASVRVSCKASGYSITNYGISWVRQAPGQGLEWMGWINTYNGNTNYAQKFQGRVTMTRDTSISTAYMELSRLRSDDTAVYYCARDHPYRGMDVWGQGTLVTVSS
VL: SYELTQDPAVSVALGQTVRITCQGDSLRSYYASWYQQKPGQAPVLVIYGKNNRPSGIPDRFSGSSSGNTASLTITGAQAEDEADYYCNSRDSSGNHPHVVFGGGTKLTVL
notes: also called scFv TPL0674_03_F05
In the case of B1, the results for the Kd in assay [1] and in assay [2] were 51.6 nM and 80.4 nM, respectively.

B2: TPL0674_03_A04 (scFv, V domains shown)
VH: QVQLVQSGSELKKPGASVKVSCKASGYTFTSYAMNWVRQAPGQGLEWMGWINTNTGNPTYAQGFTGRFVFSLDTSVSTAYLQISSLKAEDTAVYYCARDQGGDRHFGYWGQGTTVTVSS
VL: QSELTQPPSASGTPGQRVTISCSGSSSNIGSHRVNWYQQLPGTAPKLLIYSNYHRPAGVPDRFSASKSGTSASLAISGLQSEDEADYYCAAWDDSLNGYVFGTGTQLTVL
notes: also called scFv TPL0674_03_A04
Consider B2, for which the equilibrium dissociation constant (Kd) (as a rule, the constant that tells how readily two partners part at equilibrium) in assay [1] was determined as 45.3 nM; in assay [2], 66.9 nM.
